{"source": "patent US12467929", "key": {"[1]": {"biological_target": "UBE3A standard protein (ab206157, Abcam) (Homo sapiens (Human)) (UniProt Q05086)", "assay": "Singulex sandwich; capture GTX101092; UBE3A 5000 pg/ml"}, "[2]": {"biological_target": "UBE3A standard protein (Abcam, ab125736) (Homo sapiens (Human)) (UniProt Q05086)", "assay": "Singulex sandwich; capture GTX10488; interpolated UBE3A ND"}, "[3]": {"biological_target": "UBE3A standard protein (ab206157, Abcam) (Homo sapiens (Human)) (UniProt Q05086)", "assay": "Singulex sandwich; capture GTX101092; UBE3A 1250 pg/ml"}, "[4]": {"biological_target": "UBE3A standard protein (ab206157, Abcam) (Homo sapiens (Human)) (UniProt Q05086)", "assay": "Singulex sandwich; capture GTX101092; UBE3A 156.25 pg/ml"}, "[5]": {"biological_target": "UBE3A standard protein (Abcam, ab125736) (Homo sapiens (Human)) (UniProt Q05086)", "assay": "Singulex sandwich; capture GTX10488; interpolated UBE3A 256.41 pg/mL"}, "[6]": {"biological_target": "UBE3A standard protein (Abcam, ab125736) (Homo sapiens (Human)) (UniProt Q05086)", "assay": "Singulex sandwich; capture GTX10488; interpolated UBE3A 31.06 pg/mL"}, "[7]": {"biological_target": "UBE3A standard protein (Abcam, ab125736) (Homo sapiens (Human)) (UniProt Q05086)", "assay": "Singulex sandwich; capture GTX10488; interpolated UBE3A 10.59 pg/mL"}, "[8]": {"biological_target": "UBE3A standard protein (Abcam, ab125736) (Homo sapiens (Human)) (UniProt Q05086)", "assay": "Singulex sandwich; capture GTX10488; interpolated UBE3A 661.46 pg/mL"}, "[9]": {"biological_target": "UBE3A standard protein (ab206157, Abcam) (Homo sapiens (Human)) (UniProt Q05086)", "assay": "Singulex sandwich; capture GTX101092; UBE3A 39.063 pg/ml"}, "[10]": {"biological_target": "UBE3A standard protein (ab206157, Abcam) (Homo sapiens (Human)) (UniProt Q05086)", "assay": "Singulex sandwich; capture GTX101092; UBE3A 312.5 pg/ml"}, "[11]": {"biological_target": "UBE3A standard protein (ab206157, Abcam) (Homo sapiens (Human)) (UniProt Q05086)", "assay": "Singulex sandwich; capture GTX101092; UBE3A 9.766 pg/ml"}, "[12]": {"biological_target": "UBE3A standard protein (Abcam, ab125736) (Homo sapiens (Human)) (UniProt Q05086)", "assay": "Singulex sandwich; capture GTX10488; interpolated UBE3A 3.39 pg/mL"}, "[13]": {"biological_target": "UBE3A standard protein (ab206157, Abcam) (Homo sapiens (Human)) (UniProt Q05086)", "assay": "Singulex sandwich; capture GTX101092; UBE3A 19.531 pg/ml"}, "[14]": {"biological_target": "UBE3A standard protein (ab206157, Abcam) (Homo sapiens (Human)) (UniProt Q05086)", "assay": "Singulex sandwich; capture GTX101092; UBE3A 2500 pg/ml"}, "[15]": {"biological_target": "UBE3A standard protein (ab206157, Abcam) (Homo sapiens (Human)) (UniProt Q05086)", "assay": "Singulex sandwich; capture GTX101092; UBE3A 78.125 pg/ml"}, "[16]": {"biological_target": "UBE3A standard protein (Abcam, ab125736) (Homo sapiens (Human)) (UniProt Q05086)", "assay": "Singulex sandwich; capture GTX10488; interpolated UBE3A 2039.33 pg/mL"}, "[17]": {"biological_target": "UBE3A standard protein (Abcam, ab125736) (Homo sapiens (Human)) (UniProt Q05086)", "assay": "Singulex sandwich; capture GTX10488; interpolated UBE3A 78.6 pg/mL"}, "[18]": {"biological_target": "UBE3A standard protein (ab206157, Abcam) (Homo sapiens (Human)) (UniProt Q05086)", "assay": "Singulex sandwich; capture GTX101092; UBE3A 10000 pg/ml"}}}
{"substance": "anti-UBE3A antibody H00007337-M02 (AbNova)", "values": [{"measurement": "AvgDE", "setting": "[1]", "value": 10700, "unit": "DE"}, {"measurement": "DE S/N", "setting": "[2]", "value": 1}, {"measurement": "AvgDE", "setting": "[3]", "value": 4130, "unit": "DE"}, {"measurement": "AvgDE", "setting": "[4]", "value": 922, "unit": "DE"}, {"measurement": "DE Mean", "setting": "[5]", "value": 4910, "unit": "DE"}, {"measurement": "DE S/N", "setting": "[5]", "value": 11.9}, {"measurement": "EP Mean", "setting": "[5]", "value": 926000, "unit": "EP"}, {"measurement": "S-N", "setting": "[5]", "value": 4290, "unit": "DE"}, {"measurement": "DE Mean", "setting": "[6]", "value": 925, "unit": "DE"}, {"measurement": "DE S/N", "setting": "[6]", "value": 2.3}, {"measurement": "EP Mean", "setting": "[6]", "value": 143000, "unit": "EP"}, {"measurement": "S-N", "setting": "[6]", "value": 470, "unit": "DE"}, {"measurement": "DE Mean", "setting": "[7]", "value": 585, "unit": "DE"}, {"measurement": "DE S/N", "setting": "[7]", "value": 1.4}, {"measurement": "EP Mean", "setting": "[7]", "value": 91300, "unit": "EP"}, {"measurement": "S-N", "setting": "[7]", "value": 136, "unit": "DE"}, {"measurement": "DE Mean", "setting": "[8]", "value": 9340, "unit": "DE"}, {"measurement": "DE S/N", "setting": "[8]", "value": 22.7}, {"measurement": "EP Mean", "setting": "[8]", "value": "2.27e+06", "unit": "EP"}, {"measurement": "S-N", "setting": "[8]", "value": 8460, "unit": "DE"}, {"measurement": "AvgDE", "setting": "[9]", "value": 289, "unit": "DE"}, {"measurement": "AvgDE", "setting": "[10]", "value": 1610, "unit": "DE"}, {"measurement": "AvgDE", "setting": "[11]", "value": 112, "unit": "DE"}, {"measurement": "DE Mean", "setting": "[12]", "value": 461, "unit": "DE"}, {"measurement": "DE S/N", "setting": "[12]", "value": 1.1}, {"measurement": "EP Mean", "setting": "[12]", "value": 71800, "unit": "EP"}, {"measurement": "S-N", "setting": "[12]", "value": 13, "unit": "DE"}, {"measurement": "AvgDE", "setting": "[13]", "value": 208, "unit": "DE"}, {"measurement": "AvgDE", "setting": "[14]", "value": 6430, "unit": "DE"}, {"measurement": "AvgDE", "setting": "[15]", "value": 559, "unit": "DE"}, {"measurement": "DE Mean", "setting": "[16]", "value": 13600, "unit": "DE"}, {"measurement": "DE S/N", "setting": "[16]", "value": 33.1}, {"measurement": "EP Mean", "setting": "[16]", "value": "5.69e+06", "unit": "EP"}, {"measurement": "S-N", "setting": "[16]", "value": 13000, "unit": "DE"}, {"measurement": "DE Mean", "setting": "[17]", "value": 1770, "unit": "DE"}, {"measurement": "DE S/N", "setting": "[17]", "value": 4.3}, {"measurement": "EP Mean", "setting": "[17]", "value": 291000, "unit": "EP"}, {"measurement": "S-N", "setting": "[17]", "value": 1170, "unit": "DE"}, {"measurement": "AvgDE", "setting": "[18]", "value": 12700, "unit": "DE"}]}
